From paper PMC3618186
pKd: −log10 of the molar value.

Columns and labels:
[1] = target: Cytoplasmic dynein 1 intermediate chain 2, isoform 2C, N-terminal fragment IC1-124 (UniProt Q62871); assay: sedimentation equilibrium analytical ultracentrifugation (Beckman-Coulter XLI, absorbance optics); details: 4 °C
[2] = target: dynactin p150^Glued coiled-coil 1 (CC1) (R. norvegicus) (UniProt P28023); assay: SEC; equimolar IC-TcTex1-LC8 complex and p150Glued fragment (CC1, CC1A, CC1B), alone or in combination, analytical Superdex 200 10/300 GL; fractions checked by SDS-PAGE
[3] = target: dynactin p150^Glued coiled-coil 1B (CC1B), residues 381–530 (R. norvegicus) (UniProt P28023); assay: as above
[4] = target: dynactin p150^Glued coiled-coil 1 (CC1) (R. norvegicus) (UniProt P28023); assay: AUC; sedimentation equilibrium of the p150Glued fragments alone, 4°C, 1x PBS, 1 mM TCEP; monomer-dimer model (dimer to monomers)
[5] = target: dynactin p150^Glued coiled-coil 1 (CC1) (R. norvegicus) (UniProt P28023); assay: AUC; sedimentation equilibrium, stoichiometric CC1 + IC 1-124, 4°C, 100 mM NaCl; model CC1 dimer + 2 IC, constant in M^2
[6] = target: dynactin p150^Glued coiled-coil 1 (CC1) (R. norvegicus) (UniProt P28023); assay: AUC; sedimentation equilibrium, stoichiometric CC1 + IC 1-124, 4°C, 250 mM NaCl; model CC1 dimer + 2 IC, constant in M^2
[7] = target: dynactin p150^Glued coiled-coil 1 (CC1) (R. norvegicus) (UniProt P28023); assay: AUC; sedimentation equilibrium, stoichiometric CC1 + IC 1-124, 4°C, 1000 mM NaCl; model CC1 dimer + 2 IC, constant in M^2
[8] = target: dynactin p150^Glued coiled-coil 1 (CC1) (R. norvegicus) (UniProt P28023); assay: AUC; sedimentation equilibrium, CC1 + IC 1-124, 4°C, pH 7.0; model CC1 dimer + 2 IC, constant in M^2
[9] = target: dynactin p150^Glued coiled-coil 1 (CC1) (R. norvegicus) (UniProt P28023); assay: AUC; sedimentation equilibrium, stoichiometric CC1 + IC 1-124, 4°C, 500 mM NaCl; model CC1 dimer + 2 IC, constant in M^2
[10] = target: dynactin p150^Glued coiled-coil 1 (CC1) (R. norvegicus) (UniProt P28023); assay: AUC; sedimentation equilibrium of admixtures of p150Glued fragment and IC 1-124, 4°C, 1x PBS, 1 mM TCEP; model p150 dimer + 2 IC -> dimer-IC2, constant in M^2; CC1A: 10 μM + 10 μM
[11] = target: dynactin p150^Glued coiled-coil 1A (CC1A), residues 204–348 (R. norvegicus) (UniProt P28023); assay: as above
[12] = target: dynactin p150^Glued coiled-coil 1B (CC1B), residues 381–530 (R. norvegicus) (UniProt P28023); assay: as above
[13] = target: dynactin p150^Glued coiled-coil 1 (CC1) (R. norvegicus) (UniProt P28023); assay: AUC; sedimentation equilibrium, CC1 + IC 1-124, 4°C, pH 9.0; model CC1 dimer + 2 IC, constant in M^2
[14] = target: dynactin p150^Glued coiled-coil 1 (CC1) (R. norvegicus) (UniProt P28023); assay: AUC; sedimentation equilibrium, CC1 + IC 1-124, 4°C, pH 8.0; model CC1 dimer + 2 IC, constant in M^2
[15] = target: p150Glued CC1 (Drosophila melanogaster) (UniProt P13496); assay: ITC; details: cited from earlier work
Chain of p150Glued CC1 (Drosophila melanogaster) (P13496 221-509): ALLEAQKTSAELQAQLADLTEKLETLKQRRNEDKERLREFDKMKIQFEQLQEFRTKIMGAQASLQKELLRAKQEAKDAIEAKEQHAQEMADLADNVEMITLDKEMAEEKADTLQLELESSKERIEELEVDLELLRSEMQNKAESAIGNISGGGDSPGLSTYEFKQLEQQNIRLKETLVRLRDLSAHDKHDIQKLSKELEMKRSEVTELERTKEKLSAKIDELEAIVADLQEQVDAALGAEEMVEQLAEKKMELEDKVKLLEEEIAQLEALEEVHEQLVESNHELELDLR

Chain of Cytoplasmic dynein 1 intermediate chain 2, isoform 2C, N-terminal fragment IC1-124 (Q62871 whole entry, the tested form may be a part, canonical isoform): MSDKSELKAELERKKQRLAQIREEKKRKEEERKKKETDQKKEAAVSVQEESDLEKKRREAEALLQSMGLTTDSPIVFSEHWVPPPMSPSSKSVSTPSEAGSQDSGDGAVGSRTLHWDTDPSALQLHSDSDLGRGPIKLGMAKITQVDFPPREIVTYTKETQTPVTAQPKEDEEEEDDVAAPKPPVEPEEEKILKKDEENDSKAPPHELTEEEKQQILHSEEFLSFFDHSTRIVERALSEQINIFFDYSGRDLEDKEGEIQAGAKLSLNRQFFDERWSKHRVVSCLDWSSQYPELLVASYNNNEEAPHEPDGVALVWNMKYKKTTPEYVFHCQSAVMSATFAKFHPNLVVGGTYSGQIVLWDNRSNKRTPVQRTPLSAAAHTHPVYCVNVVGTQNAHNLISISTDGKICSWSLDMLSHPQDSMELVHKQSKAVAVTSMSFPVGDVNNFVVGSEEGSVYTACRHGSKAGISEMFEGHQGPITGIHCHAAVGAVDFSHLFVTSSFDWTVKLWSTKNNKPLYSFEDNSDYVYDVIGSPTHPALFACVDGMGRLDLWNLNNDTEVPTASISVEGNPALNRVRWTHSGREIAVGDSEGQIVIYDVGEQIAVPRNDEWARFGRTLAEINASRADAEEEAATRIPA
Chain of dynein intermediate chain (Q24246 whole entry): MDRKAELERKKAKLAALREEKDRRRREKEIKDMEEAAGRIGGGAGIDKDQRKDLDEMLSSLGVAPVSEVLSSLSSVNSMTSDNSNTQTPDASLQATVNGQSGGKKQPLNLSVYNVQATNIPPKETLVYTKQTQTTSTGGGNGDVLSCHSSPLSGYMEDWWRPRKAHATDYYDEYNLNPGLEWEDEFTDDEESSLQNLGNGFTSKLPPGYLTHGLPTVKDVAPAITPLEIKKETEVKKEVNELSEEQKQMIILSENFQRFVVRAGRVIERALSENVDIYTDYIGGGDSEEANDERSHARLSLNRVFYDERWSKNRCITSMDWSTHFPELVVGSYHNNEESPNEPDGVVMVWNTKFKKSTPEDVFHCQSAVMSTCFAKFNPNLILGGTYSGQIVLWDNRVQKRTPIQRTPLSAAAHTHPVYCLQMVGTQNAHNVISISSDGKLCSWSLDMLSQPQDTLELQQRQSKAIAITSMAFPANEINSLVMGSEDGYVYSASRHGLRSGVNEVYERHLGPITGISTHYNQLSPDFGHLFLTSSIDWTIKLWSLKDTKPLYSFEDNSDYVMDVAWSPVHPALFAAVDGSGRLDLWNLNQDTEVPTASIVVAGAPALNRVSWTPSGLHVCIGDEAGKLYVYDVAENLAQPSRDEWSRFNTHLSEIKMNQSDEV

In the case of “Dynactin subunit 1 (p150Glued) CC1 fragment”, the dissociation constant ([1]; pH 7.0, not stated (pH series 6.0, 7.0, 8.0, 9.0; buffer substances not named)) was ≤10^−13 M^2, the dissociation constant ([1]; pH 7.4, 1x PBS: 137 mM NaCl, 2.7 mM KCl, 1x PBS (4.3 mM Na2HPO4, 1.47 mM KH2PO4, pH 7.4)) was <10^−15 M^2 and the dissociation constant ([1]; pH 8.0, not stated (pH series 6.0, 7.0, 8.0, 9.0; buffer substances not named)) was ≤10^−14 M^2. For the same substance, the dissociation constant ([1]; pH 9.0, not stated (pH series 6.0, 7.0, 8.0, 9.0; buffer substances not named)) was ≤10^−12 M^2.

“IC2B^1–158-TcTex1-LC8 complex (from UniProt Q9Z336 1-113; P63170 1-89)” showed a change in elution volume of the IC complex [2] of 2.22 mL and a change in elution volume of the IC complex [3] of 1.26 mL.

For “dynactin p150^Glued coiled-coil 1 (CC1) (from UniProt P28023 204-530) (domain or fragment)”, the pKd [4] was over 9.00 and the stoichiometry N [4] was 2.

In the case of “dynein intermediate chain isoform 2C, residues 1–124 (domain or fragment)”, the overall dissociation constant, p150 dimer + 2 IC [5] was over 1e-15 M^2, the overall dissociation constant, p150 dimer + 2 IC [6] was 1e-12 M^2 and the overall dissociation constant, p150 dimer + 2 IC [7] was 1e-08 M^2. For the same substance, the overall dissociation constant, p150 dimer + 2 IC [8] was under 1e-13 M^2, the overall dissociation constant, p150 dimer + 2 IC [9] was 1e-10 M^2 and the overall dissociation constant, p150 dimer + 2 IC [10] was under 1e-15 M^2. The stoichiometry N (IC per CC1 dimer) [10] was 2, the overall dissociation constant, p150 dimer + 2 IC [11] was over 1e-10 M^2 and the overall dissociation constant on the scale of Figure S4B (scale not told, presumably -log10) [12] was 12. For the same substance, the stoichiometry N (IC per CC1B dimer) [12] was 2, the overall dissociation constant, p150 dimer + 2 IC [13] was under 1e-12 M^2 and the overall dissociation constant, p150 dimer + 2 IC [14] was under 1e-14 M^2.

For “dynein intermediate chain (from UniProt Q24246)”, the pKd [15] is given as 5.46.
